For this experiment, the target named is T1, FcγRIIa (Homo sapiens, UniProt P12318).
T1 construct: expressed in transfected cells; host or cells: Jurkat (NFAT-luciferase reporter)
T1 sequence (P12318 34-317): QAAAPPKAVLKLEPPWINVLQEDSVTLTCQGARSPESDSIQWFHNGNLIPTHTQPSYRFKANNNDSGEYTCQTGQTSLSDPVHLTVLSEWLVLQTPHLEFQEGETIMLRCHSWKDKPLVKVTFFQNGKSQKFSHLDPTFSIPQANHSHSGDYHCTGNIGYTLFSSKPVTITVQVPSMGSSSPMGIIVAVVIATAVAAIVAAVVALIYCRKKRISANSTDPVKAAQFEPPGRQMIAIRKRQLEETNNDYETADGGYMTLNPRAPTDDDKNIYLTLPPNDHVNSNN
In words: FcγR Jurkat NFAT-luciferase reporter cell assay with SKBR3 target cells. In kind it is cell-based. The protocol:
Cellular FcγR signaling was measured in a cell-based assay that uses SKBR3 target cells that endogenously express B7-H4 and Jurkat effector cells engineered to express FcγRI, RIIa, or RIII and an NFAT (nuclear factor of activated T cells) driven luciferase reporter gene. […] The luciferase signal is proportional to the degree of FcγR-induced effector cell activation and serves as a surrogate for ADCC (FcγRIII) or ADCP (FcγRI/IIa).
Specifically, Jurkat effector cells engineered to express FcγRI, RIIa, or RIII and an NFAT (nuclear factor of activated T cells) driven luciferase reporter gene were thawed and cultured in NFAT reporter cell medium (RPMI 1640 Medium (Gibco #11875-093) supplemented with 4% HyClone™ Fetal Bovine Serum, Super Low IgG (Gibco #A33819-01), 1× Penicillin-Streptomycin (Gibco #15140-122), 1×MEM nonessential amino acids (Gibco #11140-050), 1× L-Glutamine (Gibco #25030-081), 1× Sodium pyruvate (Gibco #11360-070), Hygromycin (Invitrogen #10687), Antibiotic G-418 sulfate solution (Promega #V8091), HEPES (Gibco #15630)). The Jurkat FcγR signaling assay was then performed as follows:
The day before the assay, target SKBR3 cells were lifted using Versene (Gibco #15040-066), washed twice with PBS, and plated at 1.2×10^4 cells per well in 90 μL RPMI 1640 containing 10% low IgG FBS and penicillin/streptomycin in black-walled 96-well plates (Corning #3603). The following day, NFAT assay buffer was prepared by adding 4 mL low IgG serum to 100 mL of RPMI 1640, mixed, and warmed to 37° C. NFAT assay buffer was used to resuspend all cells and antibody dilutions. Stock dilution plates (10×) of each antibody were prepared at 100, 30, 10, 3, 1, 0.3, 0.1, 0.03, 0.01, and 0.003 μg/mL. […] Effector cells were counted, washed twice in PBS, and resuspended at 1×10^6 cells/mL in NFAT assay buffer. […] Luminescence was measured for all samples with the Envision 96 CTG protocol (Envision plate reader, PerkinElmer) after mixing on a shaker (covered with foil) for at least 5 minutes. Background (no cells) signal was subtracted from the raw luminescence signal prior to graphing.

For “SGN-B7H4V: ADC of fully human IgG1 anti-B7-H4 mAb conjugated to monomethyl auristatin E (MMAE) via a protease-cleavable valine-citrulline linker (vedotin)”, the FcγRIIa-mediated luciferase activity entry is reported as “not FcγRIIa-mediated luciferase activity”.

Source of the values: patent US20230117205A1, “B7-H4 ANTIBODY-DRUG CONJUGATES FOR THE TREATMENT OF CANCER” (SEAGEN INC., priority 2021, published 2023).
